Measured values taken from patent US9187525B2, “Methods of treating ophthalmic diseases using NPR-B agonists” (Shire Orphan Therapies GmbH, dated 2015).
Numbered stars: 1 amine (or outer) side, 2 acyl side, 3 side chain; on linkers, the order of the positions; unused ones are H or OH. Square brackets hold non-standard residues; d marks the D form. * marks the point of attachment. cDR = (S)-2-((S)-3-(carboxymethyl)-2-oxopiperazin-1-yl)-5-guanidinopentanoic acid, N=C(N)NCCC[C@@H](C(=O)[*:2])N1CCN([*:1])[C@@H](CC(=O)[*:3])C1=O; Bhp = (2S,4R)-4-(benzyloxy)pyrrolidine-2-carboxylic acid, O=C([C@@H]1C[C@@H](OCc2ccccc2)CN1[*:1])[*:2]; Npl = (S)-4-methyl-2-(propylamino)pentanoic acid, CCCN([C@@H](CC(C)C)C(=O)[*:2])[*:1]; Sni = (S)-nipecotic acid, O=C([C@H]1CCCN([*:1])C1)[*:2]; Phe(4-Cl) = N[C@@H](Cc1ccc(Cl)cc1)C(=O)O; Phe(4-Me) = Cc1ccc(C[C@H](N)C(=O)O)cc1; Hyp = O=C(O)[C@@H]1C[C@@H](O)CN1; NMeF = CN[C@@H](Cc1ccccc1)C(=O)O; NMeL = CN[C@@H](CC(C)C)C(=O)O; dNle = CCCC[C@@H](N)C(=O)O; dOrn = NCCC[C@@H](N)C(=O)O; dPip = O=C(O)[C@H]1CCCCN1; Octanoyl = CCCCCCCC(=O)*; Hexanoyl = CCCCCC(=O)*

T1: natriuretic peptide receptor-B (human)
T1 chain: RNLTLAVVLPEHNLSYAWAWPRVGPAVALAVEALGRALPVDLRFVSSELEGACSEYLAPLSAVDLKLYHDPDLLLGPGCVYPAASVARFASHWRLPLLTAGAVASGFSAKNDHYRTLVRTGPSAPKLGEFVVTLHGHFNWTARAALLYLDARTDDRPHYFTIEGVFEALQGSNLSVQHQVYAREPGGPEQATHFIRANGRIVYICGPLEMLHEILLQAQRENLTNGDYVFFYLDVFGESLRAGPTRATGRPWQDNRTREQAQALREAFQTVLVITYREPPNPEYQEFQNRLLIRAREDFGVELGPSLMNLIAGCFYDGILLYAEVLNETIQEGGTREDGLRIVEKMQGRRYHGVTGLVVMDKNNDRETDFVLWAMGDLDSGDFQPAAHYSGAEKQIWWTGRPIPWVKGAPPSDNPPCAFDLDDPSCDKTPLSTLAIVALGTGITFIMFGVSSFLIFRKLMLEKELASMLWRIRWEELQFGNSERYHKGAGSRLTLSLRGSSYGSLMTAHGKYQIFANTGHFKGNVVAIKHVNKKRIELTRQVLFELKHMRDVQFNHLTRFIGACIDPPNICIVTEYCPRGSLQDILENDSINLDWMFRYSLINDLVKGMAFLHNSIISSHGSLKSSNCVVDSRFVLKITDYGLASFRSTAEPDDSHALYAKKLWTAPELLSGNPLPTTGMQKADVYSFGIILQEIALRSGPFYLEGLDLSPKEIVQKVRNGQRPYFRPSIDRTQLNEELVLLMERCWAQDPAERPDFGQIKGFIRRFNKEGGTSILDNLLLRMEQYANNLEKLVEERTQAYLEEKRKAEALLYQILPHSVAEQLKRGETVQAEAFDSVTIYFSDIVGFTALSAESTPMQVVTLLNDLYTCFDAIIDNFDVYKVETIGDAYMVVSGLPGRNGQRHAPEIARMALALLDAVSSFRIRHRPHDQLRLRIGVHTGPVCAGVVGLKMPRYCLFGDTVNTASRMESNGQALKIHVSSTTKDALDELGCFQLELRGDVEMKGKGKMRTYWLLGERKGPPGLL


Molecular target: T1, natriuretic peptide receptor-B
Experiment: cell-based or functional assay

Question: How did the “EC50 group, cGMP in GTM-3 cells” value turn out when Octanoyl-[Sni]F[dL]LP[NMeL]DRI-NH2 [JAL-1040] was run?
Answer: ≤ 1000 nM

Question: Which “EC50 group, cGMP in GTM-3 cells” value does the source give for Hexanoyl-G[dA]FGLKLDRISA-NH2 [JAL-0538] here?
Answer: ≤ 5000 nM

Question: How did the “EC50 group, cGMP in GTM-3 cells” value turn out when Octanoyl-[dA]F[dK]L[Hyp][NMeL]DRI-NH2 [JAL-1060] was run?
Answer: ≤ 1000 nM

Question: With Octanoyl-[dA]F[dD]L[Hyp]LDRI-NH2 [JAL-1048] as the binder, how does the “EC50 group, cGMP in GTM-3 cells” value read?
Answer: ≤ 15000 nM

Question: For Octanoyl-[dA]FGL[Bhp]LDRI-NH2 [JAL-1038], which “EC50 group, cGMP in GTM-3 cells” value is on record?
Answer: ≤ 15000 nM

Question: Hexanoyl-G[dA]FGLKLDRISG-NH2 [JAL-0539] was tested. Which “EC50 group, cGMP in GTM-3 cells” value did it give?
Answer: ≤ 5000 nM

Question: Which “EC50 group, cGMP in GTM-3 cells” value does the source give for Octanoyl-[dA]F[dR]L[Hyp]LDRI-NH2 [JAL-1047] here?
Answer: ≤ 1000 nM

Question: With Octanoyl-[dA]FGLP[Npl]DRI-NH2 [JAL-1045] as the binder, how does the “EC50 group, cGMP in GTM-3 cells” value read?
Answer: ≤ 15000 nM

Question: Octanoyl-[dA]F[dL]L[Hyp][NMeL]DRI-NH2 [JAL-1042] was tested. Which “EC50 group, cGMP in GTM-3 cells” value did it give?
Answer: ≤ 1000 nM

Question: For Octanoyl-[dPip]FGLPLDRI-NH2 [JAL-1035], which “EC50 group, cGMP in GTM-3 cells” value is on record?
Answer: ≤ 15000 nM

Question: How did the “EC50 group, cGMP in GTM-3 cells” value turn out when Octanoyl-[dA]F[dK]LP[NMeL]DRI-NH2 [JAL-1065] was run?
Answer: ≤ 5000 nM

Question: With Octanoyl-[Sni]F[dL]L[Hyp][NMeL]DRI-NH2 [JAL-1041] as the binder, how does the “EC50 group, cGMP in GTM-3 cells” value read?
Answer: ≤ 1000 nM

Question: Which “EC50 group, cGMP in GTM-3 cells” value does the source give for Octanoyl-[dA][Phe(4-Cl)][dL]L[Hyp]LDRI-NH2 [JAL-1050] here?
Answer: ≤ 1000 nM

Question: Octanoyl-[dP]F[dL]L[Hyp]LDRI-NH2 [JAL-1053] was tested. Which “EC50 group, cGMP in GTM-3 cells” value did it give?
Answer: ≤ 1000 nM

Question: With Octanoyl-[dA][Phe(4-Cl)][dL]L[Hyp][NMeL]DRI-NH2 [JAL-1043] as the binder, how does the “EC50 group, cGMP in GTM-3 cells” value read?
Answer: ≤ 1000 nM

Question: Which “EC50 group, cGMP in GTM-3 cells” value does the source give for Octanoyl-[dA]F[dOrn]L[Hyp][NMeL]DRI-NH2 [JAL-1061] here?
Answer: ≤ 1000 nM

Question: Octanoyl-[dA]F[dL]LP[NMeL]DRI-NH2 [JAL-1039] was tested. Which “EC50 group, cGMP in GTM-3 cells” value did it give?
Answer: ≤ 1000 nM

Question: How did the “EC50 group, cGMP in GTM-3 cells” value turn out when Octanoyl-[dPip]F[dL]L[Hyp]LDRI-NH2 [JAL-1054] was run?
Answer: ≤ 1000 nM

Question: For Octanoyl-[dA]F[dNle]L[Hyp][NMeL]DRI-NH2 [JAL-1044], which “EC50 group, cGMP in GTM-3 cells” value is on record?
Answer: ≤ 1000 nM

Question: With Octanoyl-[dA]F[dK]LP[NMeL]ARI-NH2 [JAL-1068] as the binder, how does the “EC50 group, cGMP in GTM-3 cells” value read?
Answer: ≤ 15000 nM

Question: How did the “EC50 group, cGMP in GTM-3 cells” value turn out when Octanoyl-[dA][NMeF][dL]L[Hyp]LDRI-NH2 [JAL-1052] was run?
Answer: ≤ 1000 nM

Question: For Octanoyl-[dA]FGLPL[cDR]I-NH2 [JAL-1037], which “EC50 group, cGMP in GTM-3 cells” value is on record?
Answer: ≤ 15000 nM

Question: Octanoyl-[dA][Phe(4-Me)][dL]L[Hyp]LDRI-NH2 [JAL-1051] was tested. Which “EC50 group, cGMP in GTM-3 cells” value did it give?
Answer: ≤ 5000 nM
